Experiment: yeast display, Sf9 membrane polyspecificity reagent, FACS + sequencing; frameworks hold sequencing errors
Method in brief: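 Polyreactivity labels are assigned by the sorting gate from which each nanobody was recovered. The gates were low and high (top ~1%), set on anti-HA fluorescence for expression and streptavidin fluorescence for reagent binding. Before sorting, galactose-induced (36–48 hours) yeast display cells were stained for 1 hour at 4 °C with 10% biotinylated, detergent-solubilized Sf9 membrane reagent.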

Sequence	polyreactivity (PSR sort gate)
RVQLVESGGGLVQAGGSLRLSCAASGSTFENYAMGWYRQAPGKERELVAAISSGGSTYYADSVKGRFTISRDNAKNTVYLQMNSLKPEDTAVYYCAAELEYWLYGYGYYYWGQGTQVTVSS	high polyreactivity
QVQLVESGGGLVQAGGSLRLSCAATGRTFQDNAMGWYRQAPGKERELVAAISWRGGSTNYADSVKGRFTISRDNAKNTVYLQMNSLKPEDTAVYYCNRDPRKYGKLDYWGQGTQVTVSS	low polyreactivity
QGQLVETGGGLGQAGGSLRLSCAASGIIFYYYAMGWYRQAPGKERELVAAITGTGSRTYYADSVKGRFTISRDNAKNTVYIQMNSLKPEDTAVYYCYARSFATCSKVPARGYWGQGTQVTVSS	high polyreactivity
QDQLVESGGGLVQAGGSLRLSCASSGRIFRWYAMGWYRQATGKERELVAAISWSGDSTYYADSVKGRFSISRDNAKNNVYLEMNSLKPEDTAVYYCNYVLYKSDYWGQGTQVTVSS	high polyreactivity
QVQLLESGGGLVQAGGSLRLSCAASGRTCRWYAMGWYTQAPWKERELVAAISSSTASTYYADSVKGRFTISRDYAKITVYLQMNSLKPEDSAVYYCAKYYYRFPVCYDYWGLGTQVTVSS	high polyreactivity
QVQLVESGGGLVQAGGSLRLSCAASGFTIVPYAMGWYRQAPGNERELVAAISRRGSRTYYADSVKGRFTISRDNAKNTVYLQMNSLKAEDTAVYYCAAKLSAVKAAYDYWGQGTQVTVSS	high polyreactivity
QFQLVESVGGLVQAGGSLRLSFAASGFNFDYNAMGWYRQAPGKERELVAAISNTGDSTYYADSVKGRFTISRDNAKNTVYLQMNSLQPEDTAVYYCAADSLFDDYWEYDYWGQGTQVTVSS	low polyreactivity
QVQHVESGGGLVQAGGSLRLSCAASGRIFYGYAMGWYRQAPGKERELVAAISSSGGSTYYADSVKGRFTISRDIAKNTVYLQMNSLKPEDTAVYYCNAQRYRPGYWYDYWGQGTQVTVSS	high polyreactivity
QVQLVESGGGLVQAGGSLRLSCAASGRTFKYYAMGWYRQAPGKERELVAAINSGGITYYADSVKGRFTISRDNAKNTVYLQMNSLKPEDTAVYYCAKVWKIGVLRYPSYGYYYWGQGTQVTVSS	high polyreactivity
QVQLVESGGGLVQAGGSLRLSCAASGLIILPNAMGWYRQAPGKDRELVAAISSYDGSTYYADSVKGRFTISRDSAKNTVYLQMNSLKPEDTAVYYCAAGYYFQVEPDLVYIYSYEYWGQGTQVTVSS	low polyreactivity
QVQLVESGGGLVQAGGSLSLSSAASGRTFGIYAMGWYRQEPGKERELVAAITWSGDSTYYADSVKGRFTISRDNAKNTVYLQLNSLKPEDTAVDYCAADYVGVTYVRYDYWGQGTQVTVSS	low polyreactivity
QVQLVESGGGLVQAGGSLRLICAASGRTFINYAMGWSRQAPGKERELVAAITTGGRTNYADSVKGRFTISRDNAKNTVYLQMKSLKPEDTAVYYCAADRYYWGRYTLNYWGQGTQVTVSS	low polyreactivity
QVQLVESGGGLVQAGGSLRLSCAASGRTFDYYAMGWYRQAPRKERELVAAISSGGSTNYADSVKGRFTISRDNAKNTVYLQMNSLKPEATAVYYCAVSGIDDVKYDYWGQGTQVTVSS	low polyreactivity
PVQLVESGGGLGQAGGSLSLRCAASGSIFTYYAMVWYRQAPGKERELVADISNSGSTYYADSVNGRFTISRDNAKNTVYLQMNRLKPEDSAVSSCNAEYHDLYDYWGQGTQVTVSS	low polyreactivity
QVQLVESGGGLVQAGGTLRLSWAASGSNFGFYTMGWYRLAPGKERELVAAITWSDSSTYADSVKGRYTISRDNAKNTVYLQMNSLKPEDTAVYYCNADTTTVEYYPFHYYTYDYWGQGTQVTVSS	low polyreactivity
QVQLEESGGGLVQAGGSLRLSCAASGRIFSYNVMGWYRQAPGKEREFVAAITSNDGSTYYADSVKGRFTISRDNAKNTVYLQMNSLKPEDTAVYYCNADFGPVSLKEPFRDDYWGQGTQVNVSS	low polyreactivity
QVQLVESGGGLVQAGGSLRLSCAASGYIFHNYAMGWYIQAPGKERELVAAITRSAGRTYYADSVKGRFTISRDNAKNTVYLQMNSLKPEDTAVYYCNARYGGRFYYCGQGTQVTVSS	high polyreactivity
